Source: paper PMC2018723

Target: viral nucleoprotein complex (HIV-1) (HIV-1 (pNL4-3))
Test: co-sedimentation; concentrated vif-defective HIV-1 virions from transfected HeLa cells loaded on a 20%/60% sucrose step gradient overlaid with 100 ul of 1% Triton X-100 (results: 0.1% Triton X-100) or PBS; SW55Ti, 60 min, 35,000 rpm, 4°C; fractions S1-S3 immunoblotted for APOBEC, CA, NC, MA

In the case of “APOBEC3G (from UniProt Q9HC16 1-384) (enzyme)”, the percent of virus-associated A3G copurifying with viral NPCs is reported as greater than 70%.
